Test results published in patent publication US20060286093A1 (ZymoGenetics, published 2006).

Key:
ztnf4 (human) = ztnf4 (human) (UniProt Q9Y275)
soluble I125-ztnf4 = biological target: T1, soluble I125-ztnf4 (human, UniProt Q9Y275 134-285, limits assumed, 125I label); assay: Scatchard analysis of soluble I125-ztnf4 binding to stable BHK transfectants expressing BCMA
T1 construct: also called ztnf4 sol

Question: With “BCMA-Ig (from UniProt Q9Y275) (Fc fusion)” as the molecule, how does the IC50 (read off the curve), inhibition of ztnf4-driven human B cell proliferation (ztnf4 (human)) read?
Answer: 0.1 µg/mL

B1: BCMA expressed on cells (receptor)
chain: MLQMAGQCSQNEYFDSLLHACIPCQLRCSSNTPPLTCQRYCNASVTNSVKGTNAILWTCLGLSLIISLAVFVLMFLLRKISSEPLKDEFKNTGSGLLGMANIDLEKSRTGDEIILPRGLEYTVEECTCEDCIKSKPKVDSDHCFPLPAMEEGATILVTTKTNDYCKSLPAALSATEIEKSISAR
notes: also called BCMA-BHK
Question: B1 was tested. Which Kd (soluble I125-ztnf4) did it give?
Answer: 1.25 nM

B2: TACI-Ig soluble receptor (TACI-Fc4) (Fc fusion, part only; not given: Fc4 carrier, part only)
chain, part: MSGLGRSRRGGRSRVDQEERFPQGLWTGVAMRSCPEEQYWDPLLGTCMSCKTICNHQSQRTCAAFCRSLSCRKEQGKFYDHLLRDCISCASICGQHPKQCAYFCENKLRSPVNLPPELRRQRSGEVENNSDNSGRYQGLEHRGSEASPALPGLKLSADQVALVYS
Question: Which IC50 (read off the curve), inhibition of ztnf4-driven human B cell proliferation (ztnf4 (human)) does the source give for B2 here?
Answer: 0.1 µg/mL
